In PMC5773536:

Tests used:
[1] = molecular target: A3B4 subunit of glycinin accumulated in transgenic soybean seeds (post-translationally processed mature form) (Glycine max (soybean)); experiment: SEC; soluble extract of dry mature transgenic seeds on a Hi-Load 16/600 Superdex 200 pg column in potassium phosphate buffer (35 mM potassium phosphate, pH 7.6, 0.4 M NaCl), 1.0 mL/min; fractions analysed by SDS-PAGE and western blot with anti-A3B4 serum; size by comparison with molecular weight standards
[2] = molecular target: recombinant luminal domain of GmVSR (soybean vacuolar sorting receptor) (Glycine max (soybean)); experiment: SPR; GmVSR(LU) amine-coupled on a CM5 chip (1000-1200 RU), BIACORE2000; GST fusion proteins injected 180 s, eluted with salt buffer 180 s, 25 °C, 30 uL/min; control flow cell subtracted; three independent experiments

| stoichiometry N [1] | Kd [2] [µM] | Molecule |
| --- | --- | --- |
| 6 | – | A3B4 subunit of glycinin accumulated in transgenic soybean seeds (post-translationally processed mature form) (natural protein) |
| – | 0.098 | PQESQKRAVA [GST fused with the 10-residue C-terminal peptide of A1aB1b] |
